Data: US12365710B2, “HMGB1 protein derivatives for the removal of biofilms” (RESEARCH INSTITUTE AT NATIONWIDE CHILDREN'S HOSPITAL, priority 2018, dated 2025)

Test system: NTHI biofilms
Format: in vivo, chinchilla
Details: for reduction in CFU of NTHI: 0.2 nmol to middle ear at days 4 and 5 post-challenge, day 6, vs diluent
Procedure: FIGS. 8A-8F: rHMGB1 and mHMGB1 promote biofilm resolution in an experimental otitis media model. Diluent, 0.2 nmol rHMGB1, or 0.2 nmol mHMGB1 were delivered directly to middle ears of chinchillas at 4 and 5 days post-challenge with NTHI. Animals were sacrificed 24 h later, middle ears were imaged (FIG. 8C, representative images) and, based on the criteria described in (FIG. 8A, biofilm) and (FIG. 8B, inflammation), blindly scored for presence of biofilm (FIG. 8D) and inflammation (FIG. 8F). CFU of NTH1 present in the mucosal biomass were quantified (FIG. 8E). Means and SEM are plotted. **P<0.01, ****P<0.0001.
rHMGB1 and mHMGB1 disrupt biofilms in two distinct animal models but the inflammatory response is strongly attenuated with Cys to Ser mutations: Applicant tested both rHMGB1 and mHMGB1 for their ability to treat middle ear infection and the corresponding inflammatory response using a well-established chinchilla model of experimental OM due to NTHI49,67,68 wherein adhered mucosal biofilm formation plays a key role in pathogenesis (FIG. 8A). The middle ear of mixed sex, outbred adult chinchillas were inoculated with 1000 CFU NTHI by transbullar injection. At days 4 and 5 post-challenge, at which time there is abundant biofilm present in the middle ear space, […] of rHMGB1, mHMGB1, or diluent was delivered directly to the middle ear (2 total treatments). On day 6, animals were sacrificed and middle ears were imaged and blindly scored for biofilm that remained (FIG. 8A) and mucosal inflammation (FIG. 8B). […] In contrast, MEFs from mHMGB1-treated animals had increased anti-inflammatory cytokines [IL-4 (2-fold), IL-10 (5-fold)] […] Next, Applicant determined whether rHMGB1 or mHMGB1 could prevent or […] biofilm development. For prevention, adult C57BL/6 mice were challenged with 10^7 CFU of Bc intratracheally (i.t.), and 0.2 nmol of rHMGB1 or mHMGB1 was added simultaneously. After 18 h, mice were euthanized, and bronchoalveolar lavage (BAL) and lungs were collected. Bc formed aggregates that were readily visible in lung sections probed with Bc antibody (FIG. 7A). Tissue was homogenized and CFUs were enumerated. […] This same animal model was then used to investigate lung damage 72 h post-challenge with Bc and administration of rHMGB1 or mHMGB1. Lungs were collected and tissue was fixed, embedded in paraffin, sectioned, and stained with Haematoxylin and Eosin (H&E). […] Next, Applicant assessed the ability of rHMGB1 and mHMGB1 to treat established Bc infection. Mice were challenged as above and 0.2 nmol rHMGB1 or mHMGB1 was administered 24 h later. 48 h after treatment, mice were euthanized and BAL and lungs were collected and processed as above. […]

rHMGB1: tagless human recombinant full length HMGB1 (1-215) expressed in E. coli
reduction in CFU of NTHI: ~1000 fold | increased IL-1β in middle ear fluids (in vivo): 3 fold | increased IL-17A in middle ear fluids (in vivo): 2 fold

B1: mHMGB1: engineered C45S variant of full length rHMGB1 that mimics the reduced form of HMGB1 (protein, UniProt P09429 1-215, looked up, variant C45S)
chain: MGKGDPKKPRGKMSSYAFFVQTCREEHKKKHPDASVNFSEFSKKSSERWKTMSAKEKGKFEDMAKADKARYEREMKTYIPPKGETKKKFKDPNAPKRPPSAFFLFCSEYRPKIKGEHPGLSIGDVAKKLGEMWNNTAADDKQPYEKKAAKLKEKYEKDIAAYRAKGKPDAAKKGVVKAEKSKKKKEEEEDEEDEEDEEEEEDEEDEDEEEDDDDE
modifications: full-length
notes: engineered C45S variant of full length rHMGB1 that mimics the reduced form of HMGB1
reduction in CFU of NTHI: ~1000 fold
